We go through five molecules from publication PMC4703863.

The target in data set [1] is T1, His6-T7 RNA polymerase (bacteriophage T7, UniProt P00573 1-883). Nature of the data set: smFRET; no NTPs; Transcription-scanning buffer: 40 mM Tris-HCl pH 7.9, 5 mM Mg2+, 60 mM Na+, 0.2 mg/ml BSA, 2 mM Trolox, PCA/PCD; 0.5-5 nM RNAP, 20 nM AID; temperature and ssDNA.
Data set [2] concerns the target T1, His6-T7 RNA polymerase. Put plainly: smFRET; no NTPs; ~0.85 FRET; Transcription-scanning buffer: 40 mM Tris-HCl pH 7.9, 5 mM Mg2+, 60 mM Na+, 0.2 mg/ml BSA, 2 mM Trolox, PCA/PCD; 0.5-5 nM RNAP, 20 nM AID; temperature and ssDNA.
Data set [3] addresses T1, His6-T7 RNA polymerase. Put plainly: smFRET; no NTPs; ~0.2 FRET; Transcription-scanning buffer: 40 mM Tris-HCl pH 7.9, 5 mM Mg2+, 60 mM Na+, 0.2 mg/ml BSA, 2 mM Trolox, PCA/PCD; 0.5-5 nM RNAP, 20 nM AID; temperature and ssDNA.
Data set [4] concerns the target T1, His6-T7 RNA polymerase. Nature of the data set: smFRET; no NTPs; ~0.4 FRET; Transcription-scanning buffer: 40 mM Tris-HCl pH 7.9, 5 mM Mg2+, 60 mM Na+, 0.2 mg/ml BSA, 2 mM Trolox, PCA/PCD; 0.5-5 nM RNAP, 20 nM AID; temperature and ssDNA.
Data set [5] deals with T1, His6-T7 RNA polymerase. Put plainly: smFRET; no NTPs; ~0.95 FRET; Transcription-scanning buffer: 40 mM Tris-HCl pH 7.9, 5 mM Mg2+, 60 mM Na+, 0.2 mg/ml BSA, 2 mM Trolox, PCA/PCD; 0.5-5 nM RNAP, 20 nM AID; temperature and ssDNA.

T1 sequence (P00573 whole entry): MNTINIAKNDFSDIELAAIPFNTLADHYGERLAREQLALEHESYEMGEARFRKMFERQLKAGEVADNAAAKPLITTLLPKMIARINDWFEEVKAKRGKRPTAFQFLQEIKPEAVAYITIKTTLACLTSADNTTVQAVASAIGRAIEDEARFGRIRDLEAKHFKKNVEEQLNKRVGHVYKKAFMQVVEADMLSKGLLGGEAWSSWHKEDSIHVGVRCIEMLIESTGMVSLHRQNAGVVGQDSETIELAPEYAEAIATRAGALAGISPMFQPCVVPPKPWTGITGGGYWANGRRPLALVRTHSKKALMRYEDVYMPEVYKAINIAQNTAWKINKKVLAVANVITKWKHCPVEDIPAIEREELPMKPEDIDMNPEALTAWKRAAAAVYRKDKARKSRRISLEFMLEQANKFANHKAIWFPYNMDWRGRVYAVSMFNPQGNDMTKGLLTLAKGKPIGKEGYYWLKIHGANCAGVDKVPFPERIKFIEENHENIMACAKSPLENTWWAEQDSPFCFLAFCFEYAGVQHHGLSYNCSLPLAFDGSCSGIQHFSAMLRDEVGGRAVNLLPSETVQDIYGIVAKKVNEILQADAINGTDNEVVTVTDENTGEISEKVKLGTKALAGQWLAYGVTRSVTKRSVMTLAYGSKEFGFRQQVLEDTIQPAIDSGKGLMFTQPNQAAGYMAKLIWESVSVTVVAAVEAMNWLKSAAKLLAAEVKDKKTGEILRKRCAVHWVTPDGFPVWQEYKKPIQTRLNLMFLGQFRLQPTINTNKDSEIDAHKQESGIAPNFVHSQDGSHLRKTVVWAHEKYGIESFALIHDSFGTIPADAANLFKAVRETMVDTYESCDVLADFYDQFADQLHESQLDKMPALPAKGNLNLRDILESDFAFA

B1: No-promoter dsDNA 66-mer (dsDNA)
DNA 1: CAGAGATGCAGCCGTCCGTATCCGTATTGTAGAAAAGGGGAAAGCAAAGAGGAAAGGTGAGGAGGT
DNA 2: ACCTCCTCACCTTTCCTCTTTGCTTTCCCCTTTTCTACAATACGGATACGGACGGCTGCATCTCTG
B1: the binding result in data set [1] is “no binding”.

B2: T7 promoter dsDNA shifted 20 bp downstream (19 bp from Cy3 end) (dsDNA)
DNA 1: TTTAAGAGGAAAGGTGAGGAGGTCAGAGATGCATAATACGACTCACTATAGGGAGAAAAGGGGAAAGCA
DNA 2: TGCTTTCCCCTTTTCTCCCTATAGTGAGTCGTATTATGCATCTCTGACCTCCTCACCTTTCCTCTT
On to B2, for which, in data set [2], the binding result is “binds”.

B3: 69/66-mer T7 promoter dsDNA (promoter 39 bp from Cy3 end) (dsDNA)
DNA 1: TTTCAGAGATGCATAATACGACTCACTATAGGGAGAAAAGGGGAAAGCAAAGAGGAAAGGTGAGGAGGT
DNA 2: ACCTCCTCACCTTTCCTCTTTGCTTTCCCCTTTTCTCCCTATAGTGAGTCGTATTATGCATCTCTG
B3: the binding result in data set [3] is “binds”.

B4: T7 promoter dsDNA shifted 10 bp downstream (29 bp from Cy3 end) (dsDNA)
DNA 1: TTTGTGAGGAGGTCAGAGATGCATAATACGACTCACTATAGGGAGAAAAGGGGAAAGCAAAGAGGAAAG
DNA 2: CTTTCCTCTTTGCTTTCCCCTTTTCTCCCTATAGTGAGTCGTATTATGCATCTCTGACCTCCTCAC
B4: in data set [4], the binding result is listed as “binds”.

B5: T7 promoter dsDNA shifted 30 bp downstream (9 bp from Cy3 end) (dsDNA)
DNA 1: TTTGGGGAAAGCAAAGAGGAAAGGTGAGGAGGTCAGAGATGCATAATACGACTCACTATAGGGAGAAAA
DNA 2: TTTTCTCCCTATAGTGAGTCGTATTATGCATCTCTGACCTCCTCACCTTTCCTCTTTGCTTTCCCC
Take B5: the binding result in data set [5] was “binds”.
